This is an account of results in patent US20150344580A1 (MSM PROTEIN TECHNOLOGIES, published 2015).

Usually EC50 stands for the concentration needed to bring the measured effect to its halfway point. A high value points to a less potent agent.

Test [1] concerns the target T1, human chemokine receptor CCR7 (human, UniProt P32248 25-378).
T1 construct: On CHO, BHK, R1610 and Chem-1 transfectants and, natively, on human PBMC and the leukemia lines JVM-13 and CLL-AAT; also called human CCR7; hCCR7
T1 sequence: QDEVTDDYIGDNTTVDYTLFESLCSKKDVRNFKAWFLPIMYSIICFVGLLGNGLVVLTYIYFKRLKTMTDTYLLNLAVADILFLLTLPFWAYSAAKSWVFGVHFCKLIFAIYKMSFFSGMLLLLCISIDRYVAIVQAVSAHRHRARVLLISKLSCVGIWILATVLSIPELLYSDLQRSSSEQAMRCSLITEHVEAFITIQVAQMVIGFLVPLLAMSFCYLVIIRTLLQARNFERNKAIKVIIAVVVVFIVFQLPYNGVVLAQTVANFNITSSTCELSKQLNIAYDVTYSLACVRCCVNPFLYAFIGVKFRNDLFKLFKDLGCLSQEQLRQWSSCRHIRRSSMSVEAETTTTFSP
The test is described as follows: IgG1 of Table 16 on human CCR7-expressing cells.

Test [2] concerns the target T1, human chemokine receptor CCR7. The test is described as follows: flow cytometry titration, CHO-human CCR7 cells, anti-human Fc-PE. On the procedure:
The affinity of IgG1 antibodies to human CCR7 was evaluated by measuring mean fluorescence value (MFI) of cells expressing CCR7 in the presence of varying concentration of antibody in question, upon staining of bound to the cells antibodies with a commercial anti-human antibody-PE conjugate. The data of such experiments are depicted in FIGS. 9, 10, and 11. In these experiments binding of some antibodies to parental cells or cells expressing mouse CCR7 was also quantitatively characterized by obtaining EC₅₀ value (a concentration of IgG1 at which half-maximum MFI is achieved) for each curve using the SoftMaxPro5 program.
For orientation: Flow cytometry measures light scatter and fluorescence of single cells or particles in a stream.

Test [3] addresses T2, human CD22 (human, UniProt P20273 20-847).
T2 sequence (looked up): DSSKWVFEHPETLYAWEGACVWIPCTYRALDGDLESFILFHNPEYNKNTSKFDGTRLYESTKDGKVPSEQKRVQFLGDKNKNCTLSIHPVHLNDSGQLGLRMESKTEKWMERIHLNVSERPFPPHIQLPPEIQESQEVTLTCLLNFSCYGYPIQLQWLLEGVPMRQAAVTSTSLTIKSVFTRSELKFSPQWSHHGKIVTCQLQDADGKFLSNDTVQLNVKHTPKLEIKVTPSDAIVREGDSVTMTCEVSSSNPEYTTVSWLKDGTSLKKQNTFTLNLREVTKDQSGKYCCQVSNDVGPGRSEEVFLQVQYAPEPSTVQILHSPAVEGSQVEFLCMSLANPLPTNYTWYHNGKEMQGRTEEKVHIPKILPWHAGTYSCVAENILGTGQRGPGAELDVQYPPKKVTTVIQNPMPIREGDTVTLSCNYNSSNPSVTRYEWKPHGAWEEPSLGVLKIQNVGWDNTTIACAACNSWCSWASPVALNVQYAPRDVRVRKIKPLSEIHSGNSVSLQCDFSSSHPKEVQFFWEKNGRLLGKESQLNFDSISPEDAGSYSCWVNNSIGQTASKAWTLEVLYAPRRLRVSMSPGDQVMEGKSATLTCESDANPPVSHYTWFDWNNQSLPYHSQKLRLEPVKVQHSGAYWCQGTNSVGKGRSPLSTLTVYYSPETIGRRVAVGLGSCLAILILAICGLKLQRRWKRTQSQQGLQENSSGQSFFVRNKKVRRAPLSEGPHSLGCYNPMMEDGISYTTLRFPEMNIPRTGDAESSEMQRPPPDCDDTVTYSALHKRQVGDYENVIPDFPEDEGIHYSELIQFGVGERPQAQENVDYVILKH
Nature of the test: cell-based or functional assay.

B1: R707MSF (MSM-R707 HC CDR3 mutant, IgG1) (antibody, V domains shown)
VH: EVQLLESGGGLVQPGGSLRLSCAASGFTFSNYAIHWVRQAPGKGLEWVSAITPRGGYTYYADSVKGRFTISRDNSKNTLYLQMNSLRAEDTAVYYCARGLTMSYTPGFDYWGQGTLVTVSS
VL: not shown
notes: IgG1
For the molecule B1, the binding result in test [1] is “binds”.

B2: R707FMF (MSM-R707 HC CDR3 mutant, IgG1) (antibody, V domains shown)
VH: EVQLLESGGGLVQPGGSLRLSCAASGFTFSNYAIHWVRQAPGKGLEWVSAITPRGGYTYYADSVKGRFTISRDNSKNTLYLQMNSLRAEDTAVYYCARGLTFMYTPGFDYWGQGTLVTVSS
VL: not shown
notes: IgG1
B2: the binding result in test [1] is “binds”.

B3: R707IMF (MSM-R707 HC CDR3 mutant, IgG1) (antibody, V domains shown)
VH: EVQLLESGGGLVQPGGSLRLSCAASGFTFSNYAIHWVRQAPGKGLEWVSAITPRGGYTYYADSVKGRFTISRDNSKNTLYLQMNSLRAEDTAVYYCARGLTIMYTPGFDYWGQGTLVTVSS
VL: not shown
notes: IgG1
Take B3: the binding result in test [1] is “binds”.

B4: R707MPF (MSM-R707 HC CDR3 mutant, IgG1) (antibody, V domains shown)
VH: EVQLLESGGGLVQPGGSLRLSCAASGFTFSNYAIHWVRQAPGKGLEWVSAITPRGGYTYYADSVKGRFTISRDNSKNTLYLQMNSLRAEDTAVYYCARGLTMPYTPGFDYWGQGTLVTVSS
VL: not shown
notes: IgG1
As to B4, in test [1], the binding result was “binds”.

B5: R707MVF (MSM-R707 HC CDR3 mutant, IgG1) (antibody, V domains shown)
VH: EVQLLESGGGLVQPGGSLRLSCAASGFTFSNYAIHWVRQAPGKGLEWVSAITPRGGYTYYADSVKGRFTISRDNSKNTLYLQMNSLRAEDTAVYYCARGLTMVYTPGFDYWGQGTLVTVSS
VL: not shown
notes: IgG1
With B5, the binding result in test [1] was “binds”.

B6: R707MRF (MSM-R707 HC CDR3 mutant, IgG1) (antibody, V domains shown)
VH: EVQLLESGGGLVQPGGSLRLSCAASGFTFSNYAIHWVRQAPGKGLEWVSAITPRGGYTYYADSVKGRFTISRDNSKNTLYLQMNSLRAEDTAVYYCARGLTMRYTPGFDYWGQGTLVTVSS
VL: not shown
notes: IgG1
For B6, the binding result in test [1] is given as “binds”.

B7: R707RMF (MSM-R707 HC CDR3 mutant, IgG1) (antibody, V domains shown)
VH: EVQLLESGGGLVQPGGSLRLSCAASGFTFSNYAIHWVRQAPGKGLEWVSAITPRGGYTYYADSVKGRFTISRDNSKNTLYLQMNSLRAEDTAVYYCARGLTRMYTPGFDYWGQGTLVTVSS
VL: not shown
notes: IgG1
On to B7, for which, in test [1], the binding result is reported as “binds”.

B8: R707NMF (MSM-R707 HC CDR3 mutant, IgG1) (antibody, V domains shown)
VH: EVQLLESGGGLVQPGGSLRLSCAASGFTFSNYAIHWVRQAPGKGLEWVSAITPRGGYTYYADSVKGRFTISRDNSKNTLYLQMNSLRAEDTAVYYCARGLTNMYTPGFDYWGQGTLVTVSS
VL: not shown
notes: IgG1
For the molecule B8, the binding result in test [1] is reported as “binds”.

B9: R707MTF (MSM-R707 HC CDR3 mutant, IgG1) (antibody, V domains shown)
VH: EVQLLESGGGLVQPGGSLRLSCAASGFTFSNYAIHWVRQAPGKGLEWVSAITPRGGYTYYADSVKGRFTISRDNSKNTLYLQMNSLRAEDTAVYYCARGLTMTYTPGFDYWGQGTLVTVSS
VL: not shown
notes: IgG1
In the case of B9, in test [1], the binding result is given as “binds”.

B10: R707MLF (MSM-R707 HC CDR3 mutant, IgG1) (antibody, V domains shown)
VH: EVQLLESGGGLVQPGGSLRLSCAASGFTFSNYAIHWVRQAPGKGLEWVSAITPRGGYTYYADSVKGRFTISRDNSKNTLYLQMNSLRAEDTAVYYCARGLTMLYTPGFDYWGQGTLVTVSS
VL: not shown
notes: IgG1
As for B10, the binding result in test [1] is “binds”.

B11: R707SMF (MSM-R707 HC CDR3 mutant, IgG1) (antibody, V domains shown)
VH: EVQLLESGGGLVQPGGSLRLSCAASGFTFSNYAIHWVRQAPGKGLEWVSAITPRGGYTYYADSVKGRFTISRDNSKNTLYLQMNSLRAEDTAVYYCARGLTSMYTPGFDYWGQGTLVTVSS
VL: not shown
notes: IgG1
With B11, the binding result in test [1] is on record as “binds”.

B12: MSM-R707BL (fully human anti-human CCR7 antibody, IgG1) (antibody, V domains shown)
VH: EVQLLESGGGLVQPGGSLRLSCAASGFTFSNYAIHWVRQAPGKGLEWVSAITPRGGYTYYADSVKGRFTISRDNSKNTLYLQMNSLRAEDTAVYYCARGLTLSYTPGFDYWGQGTLVTVSS
VL: not shown
notes: IgG1 format; HC CDR3 derivative of MSM-R707
With B12, the EC50 in test [2] was found to be 2.6 nM.

B13: MSM-R707BR (fully human anti-human CCR7 antibody, IgG1) (antibody, V domains shown)
VH: EVQLLESGGGLVQPGGSLRLSCAASGFTFSNYAIHWVRQAPGKGLEWVSAITPRGGYTYYADSVKGRFTISRDNSKNTLYLQMNSLRAEDTAVYYCARGLTRSYTPGFDYWGQGTLVTVSS
VL: not shown
notes: as for B12
In test [2], B13 gave an EC50 of 1.9 nM.

B14: R707LMF (MSM-R707 HC CDR3 mutant, IgG1) (antibody, V domains shown)
VH: EVQLLESGGGLVQPGGSLRLSCAASGFTFSNYAIHWVRQAPGKGLEWVSAITPRGGYTYYADSVKGRFTISRDNSKNTLYLQMNSLRAEDTAVYYCARGLTLMYTPGFDYWGQGTLVTVSS
VL: not shown
notes: IgG1
Consider B14, for which, in test [1], the binding result is listed as “binds”.

B15: R707MAF (MSM-R707 HC CDR3 mutant, IgG1) (antibody, V domains shown)
VH: EVQLLESGGGLVQPGGSLRLSCAASGFTFSNYAIHWVRQAPGKGLEWVSAITPRGGYTYYADSVKGRFTISRDNSKNTLYLQMNSLRAEDTAVYYCARGLTMAYTPGFDYWGQGTLVTVSS
VL: not shown
notes: IgG1
Turning to B15, the binding result in test [1] is reported as “binds”.

B16: R707WMF (MSM-R707 HC CDR3 mutant, IgG1) (antibody, V domains shown)
VH: EVQLLESGGGLVQPGGSLRLSCAASGFTFSNYAIHWVRQAPGKGLEWVSAITPRGGYTYYADSVKGRFTISRDNSKNTLYLQMNSLRAEDTAVYYCARGLTWMYTPGFDYWGQGTLVTVSS
VL: not shown
notes: IgG1
Consider B16, for which the binding result in test [1] is on record as “binds”.

B17: R707TMF (MSM-R707 HC CDR3 mutant, IgG1) (antibody, V domains shown)
VH: EVQLLESGGGLVQPGGSLRLSCAASGFTFSNYAIHWVRQAPGKGLEWVSAITPRGGYTYYADSVKGRFTISRDNSKNTLYLQMNSLRAEDTAVYYCARGLTTMYTPGFDYWGQGTLVTVSS
VL: not shown
notes: IgG1
Turning to B17, the binding result in test [1] is listed as “binds”.

B18: R707MQF (MSM-R707 HC CDR3 mutant, IgG1) (antibody, V domains shown)
VH: EVQLLESGGGLVQPGGSLRLSCAASGFTFSNYAIHWVRQAPGKGLEWVSAITPRGGYTYYADSVKGRFTISRDNSKNTLYLQMNSLRAEDTAVYYCARGLTMQYTPGFDYWGQGTLVTVSS
VL: not shown
notes: IgG1
On to B18, for which, in test [1], the binding result is recorded as “binds”.

B19: R707MGF (MSM-R707 HC CDR3 mutant, IgG1) (antibody, V domains shown)
VH: EVQLLESGGGLVQPGGSLRLSCAASGFTFSNYAIHWVRQAPGKGLEWVSAITPRGGYTYYADSVKGRFTISRDNSKNTLYLQMNSLRAEDTAVYYCARGLTMGYTPGFDYWGQGTLVTVSS
VL: not shown
notes: IgG1
Take B19: the binding result in test [1] is recorded as “binds”.

B20: R707KMF (MSM-R707 HC CDR3 mutant, IgG1) (antibody, V domains shown)
VH: EVQLLESGGGLVQPGGSLRLSCAASGFTFSNYAIHWVRQAPGKGLEWVSAITPRGGYTYYADSVKGRFTISRDNSKNTLYLQMNSLRAEDTAVYYCARGLTKMYTPGFDYWGQGTLVTVSS
VL: not shown
notes: IgG1
B20: in test [1], the binding result is reported as “binds”.

B21: mouse anti-human CD22 monoclonal antibody (antibody, V domains shown)
VH: QVQLQQSGAELVKPGASVKMSCKASGYTFTSYWLHWIKQRPGQGLEWIGYINPRNDYTEYNQKFKDKATLTADKSSSTAYMQLSSLTSEDSAVYYCARRDITTFYWGQGTTLTVSS
VL: DIQLTQSPSSLAVSAGENVTMSCKSSQSVLYSANHKNYLAWYQQKPGQSPKLLIYWASTRESGVPDRFTGSGSGTDFTLTISRVQVEDLAIYYCHQYLSSWTFGGGTKLEIK
With B21, in test [3], the “EC50 of cell killing with mouse Fab-ZAP, CLL-AAT cells” value was 0.06 nM and the “EC50 of cell killing with mouse Fab-ZAP, JVM-13 cells” value came out at 0.5 nM.
